The values that follow come from paper PMC4003281.

In the test the target is DegP^S210A/R207P (Escherichia coli) (UniProt P0C0V0). As to the kind of experiment: fluorescence polarisation. (In general: In fluorescence polarisation assays a small probe gives low polarisation when free and higher when bound to something large.)

pKd: −log10 of the molar value.

“^flC18–58, fluorescent peptide derived from residues 18–58 of lysozyme” had a negative logarithm of the Kd (pKd) of 5.77.

A word on the pKd: it is the negative decadic logarithm of the Kd, by convention in mol/L. Low readings indicate a large Kd, high ones a small Kd.
